The target of data set [1] is IgG in human serum pool from 100 individuals.
The target of data set [2] is anti-drug antibodies (ADA) in human serum.

Residue numbers refer to the chain shown, from its start.

B1: pCART239, a variant IdeZ polypeptide of the invention (protein)
chain: MDDYQRNATEAYAKEVPHQITSVWTKGVTPPEQFTQGEDVIHAPYLAHQGWYDITKAFNGKDDLLCGAATAGNMLHWWFDQNKTEIEAYLSKHPEKQKIIFRNQELFDLKAAIDTKDSQTNSQLFNYFRDKAFPNLSARQLGVMPDLVLDMFINGYYLNVFKTQSTDVNRPYQDKDKRGGIFDAVFTRGNQTTLLTARHDLKNKGLNDISTIIKQELTEGRALALSHTYANVSISHVINLWGADFNAEGNLEAIYVTDSDANASIGMKKYFVGINAHGHVAISAKKIEGENIGAQVLGLFTLSSGKDIWQKLSGGGHHHHHH
With B1, in data set [1], the “enzyme concentration at which intact IgG started to be digested, serum pool with 0.1 mg/ml pCART243 (SDS-PAGE)” value was “Intact IgG started to be digested already at 0.03 µg/ml”; the “enzyme concentration at which scIgG are further digested into F(ab')2 and Fc fragments in serum pool (SDS-PAGE)” value is reported as “approximately 1.9 µg/ml of enzyme”; the “enzyme concentration for cleavage from IgG to scIgG in serum pool (SDS-PAGE)” value is “approximately 0.9 µg/ml of enzyme”.

B2: pCART243, an inactive variant IdeZ polypeptide (protein)
chain: B1 chain with C66G
As to B2, the “restoration of pCART239 IgG cleavage activity in serum by 0.1 mg/ml inactive decoy (SDS-PAGE)” value in data set [2] was “should bind the inactivating ADA to the extent that the activity of pCART239 in serum is restored. This was shown to be the case”.

The record behind these values is patent publication US20260028608.
